Experimental findings from article PMC3741180, “A Novel High Throughput Biochemical Assay to Evaluate the HuR Protein-RNA Complex Formation” (PLoS ONE, 2013) are described below.

The target of data set [1] is T1, HuR/ELAVL1 (Homo sapiens, UniProt Q15717).
T1 construct: full-length human HuR with C-terminal Myc-His tag (rHuR), purified from HEK293T cells
The experiment in a line: AlphaScreen ([…]) and REMSA ([…]) of rHuR-RNA complex formation. The format is biochemical. For orientation: Alpha assays give light when donor and acceptor beads are brought close together.

Data set [2] concerns the target T2, rHuR (HuR-Myc-His) (Homo sapiens, UniProt Q15717 1-326). The experiment in a line: AlphaScreen competition; versus 50 nM Bi-TNF, 1 nM rHuR; AlphaScreen: 25 mM HEPES pH 7.4, 100 mM NaCl, 0.1% BSA, room temperature; REMSA: 20 mM HEPES pH 7.5, 50 mM KCl, 0.5 ug BSA, 0.25% glycerol, room temperature, 6% native gel 0.5X TBE at 4 C. The following applies: protein: recombinant; tags: C-terminal c-Myc and His6; single strand.

Data set [3] concerns the target T2, rHuR (HuR-Myc-His). As to the kind of experiment: AlphaScreen saturation binding; signal near background, probe 0-100 nM; AlphaScreen: 25 mM HEPES pH 7.4, 100 mM NaCl, 0.1% BSA, room temperature; REMSA: 20 mM HEPES pH 7.5, 50 mM KCl, 0.5 ug BSA, 0.25% glycerol, room temperature, 6% native gel 0.5X TBE at 4 C. The conditions noted are these: protein: recombinant; tags: C-terminal c-Myc and His6; label: 5'-biotin; single strand.

Data set [4] has as its target T3, rTTP (His-Strep-TTP) (Mus musculus, UniProt P22893 1-319).
T3 sequence: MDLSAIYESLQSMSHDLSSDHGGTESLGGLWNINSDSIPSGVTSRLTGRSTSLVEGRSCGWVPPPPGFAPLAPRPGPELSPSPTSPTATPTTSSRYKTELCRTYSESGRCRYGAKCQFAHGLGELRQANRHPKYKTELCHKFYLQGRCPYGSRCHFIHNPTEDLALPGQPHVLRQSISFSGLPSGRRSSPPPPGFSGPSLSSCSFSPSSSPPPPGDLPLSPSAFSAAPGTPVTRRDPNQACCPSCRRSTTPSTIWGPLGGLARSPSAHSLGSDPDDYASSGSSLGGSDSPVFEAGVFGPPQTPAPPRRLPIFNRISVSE
As to the kind of experiment: AlphaScreen competition; rTTP displacing 1 nM rHuR from 50 nM Bi-TNF; AlphaScreen: 25 mM HEPES pH 7.4, 100 mM NaCl, 0.1% BSA, room temperature; REMSA: 20 mM HEPES pH 7.5, 50 mM KCl, 0.5 ug BSA, 0.25% glycerol, room temperature, 6% native gel 0.5X TBE at 4 C. The following applies: protein: recombinant; tags: His-Strep; label: 5'-biotin; single strand.

Data set [5] addresses T2, rHuR (HuR-Myc-His). The experiment in a line: AlphaScreen saturation binding; AlphaScreen: 25 mM HEPES pH 7.4, 100 mM NaCl, 0.1% BSA, room temperature; REMSA: 20 mM HEPES pH 7.5, 50 mM KCl, 0.5 ug BSA, 0.25% glycerol, room temperature, 6% native gel 0.5X TBE at 4 C. The conditions noted are these: protein: recombinant; tags: C-terminal c-Myc and His6; label: 5'-biotin; single strand.

Data set [6] deals with T2, rHuR (HuR-Myc-His). The experiment in a line: AlphaScreen saturation binding; repeat alongside Bi-COX; AlphaScreen: 25 mM HEPES pH 7.4, 100 mM NaCl, 0.1% BSA, room temperature; REMSA: 20 mM HEPES pH 7.5, 50 mM KCl, 0.5 ug BSA, 0.25% glycerol, room temperature, 6% native gel 0.5X TBE at 4 C. The conditions noted are these: protein: recombinant; tags: C-terminal c-Myc and His6; label: 5'-biotin; single strand.

T2 sequence (Q15717 whole entry): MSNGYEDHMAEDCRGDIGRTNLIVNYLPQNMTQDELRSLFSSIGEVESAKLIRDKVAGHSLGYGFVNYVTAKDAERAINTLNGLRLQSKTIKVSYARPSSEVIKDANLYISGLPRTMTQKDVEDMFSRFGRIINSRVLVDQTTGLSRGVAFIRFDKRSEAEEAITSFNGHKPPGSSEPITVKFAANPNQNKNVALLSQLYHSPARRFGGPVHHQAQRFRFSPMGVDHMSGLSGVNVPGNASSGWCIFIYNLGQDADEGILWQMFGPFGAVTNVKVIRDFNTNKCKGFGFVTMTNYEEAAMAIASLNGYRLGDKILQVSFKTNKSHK
T1 sequence (Q15717 2-326): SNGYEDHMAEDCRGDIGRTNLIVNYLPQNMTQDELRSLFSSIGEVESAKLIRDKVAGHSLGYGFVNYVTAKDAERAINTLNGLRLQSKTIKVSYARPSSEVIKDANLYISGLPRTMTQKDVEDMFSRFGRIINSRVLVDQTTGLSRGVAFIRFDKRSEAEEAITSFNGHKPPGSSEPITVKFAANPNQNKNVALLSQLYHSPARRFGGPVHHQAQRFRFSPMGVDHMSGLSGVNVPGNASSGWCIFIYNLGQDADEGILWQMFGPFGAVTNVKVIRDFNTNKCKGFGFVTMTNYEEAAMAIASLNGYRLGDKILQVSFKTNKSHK

On to `O=C1c2c(O)ccc(O)c2C(=O)c2c(NCCNCCO)ccc(NCCNCCO)c21` [compound 16, Mitoxantrone], for which the “AlphaScreen (25 nM) and REMSA (0.5 μM) of rHuR-RNA complex formation” value in data set [1] is “Mitoxantrone revealed to be a compound interfering with rHuR binding to Bi-TNF in both of our in vitro assays”.

As usually defined, the Ki is the dissociation constant of the complex between target and ligand, obtained from inhibition or displacement. In the case of AUUAUUUAUUAUUUAUUUAUUAUUUA (ssRNA) [U-TNF], the Ki in data set [2] stood at 4.49 ± 1.1 nM.

Consider ACCACCCACCACCCACCCACCACCCA (ssRNA) [Bi-TNFneg], for which the binding result in data set [3] was “no binding”.

As a reminder, the Kd is the constant that tells how readily two partners part at equilibrium. Turning to AUUAUUUAUUAUUUAUUUAUUAUUUA (ssRNA) [Bi-TNF], the inhibition constant Ki in data set [4] came out at 0.00176 ± 0.00041 nM. For the same molecule, the Kd in data set [5] stood at 2.5 ± 0.6 nM; in data set [6] it was 2.75 nM.

Turning to UAUUAAUUUAAUUAUUUAAUAAUAUUU (ssRNA) [Bi-COX], in data set [5], the Kd was found to be 4.58 ± 1.2 nM.
